Experimental data published in patent publication US20220135701A1 (Genentech, published 2022).
Like-named read-outs stand apart in the source and are kept apart here.

What was measured:
[1] = target: T1, human MerTK on human macrophages (human, UniProt Q12866 21-999); assay: cell-based or functional assay
T1 sequence: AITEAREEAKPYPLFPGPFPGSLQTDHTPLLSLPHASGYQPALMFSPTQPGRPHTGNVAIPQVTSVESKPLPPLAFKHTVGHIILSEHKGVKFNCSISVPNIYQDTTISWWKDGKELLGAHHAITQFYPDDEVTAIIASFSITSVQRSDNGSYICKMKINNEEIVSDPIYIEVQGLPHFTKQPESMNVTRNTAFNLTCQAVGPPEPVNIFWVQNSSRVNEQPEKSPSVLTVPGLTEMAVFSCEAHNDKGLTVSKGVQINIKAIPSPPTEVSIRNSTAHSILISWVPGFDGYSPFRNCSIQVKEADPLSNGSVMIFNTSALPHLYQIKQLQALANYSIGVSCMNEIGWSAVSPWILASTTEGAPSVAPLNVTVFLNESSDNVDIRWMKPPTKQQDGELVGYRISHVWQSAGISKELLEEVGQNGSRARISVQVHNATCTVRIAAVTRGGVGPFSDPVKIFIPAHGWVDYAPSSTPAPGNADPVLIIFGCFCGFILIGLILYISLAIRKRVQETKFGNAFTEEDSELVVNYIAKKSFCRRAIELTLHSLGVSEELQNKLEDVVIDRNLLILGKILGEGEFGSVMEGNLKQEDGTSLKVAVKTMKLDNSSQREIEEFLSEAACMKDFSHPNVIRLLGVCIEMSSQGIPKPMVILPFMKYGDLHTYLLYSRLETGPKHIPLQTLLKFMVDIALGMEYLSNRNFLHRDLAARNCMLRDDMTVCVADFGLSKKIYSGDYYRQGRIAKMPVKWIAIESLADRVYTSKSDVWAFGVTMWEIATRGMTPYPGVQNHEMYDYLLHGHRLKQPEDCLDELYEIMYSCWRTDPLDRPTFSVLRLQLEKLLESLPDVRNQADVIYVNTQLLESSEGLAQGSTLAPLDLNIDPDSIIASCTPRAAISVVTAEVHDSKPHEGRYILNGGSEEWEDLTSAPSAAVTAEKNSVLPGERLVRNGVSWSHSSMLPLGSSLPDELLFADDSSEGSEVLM

[2] = target: T1, human MerTK on human macrophages; assay: cell-based or functional assay; remark: listed apart in the source
[3] = target: T1, human MerTK on human macrophages; assay: cell-based or functional assay; remark: listed apart in the source
human MerTK [4] = target: T2, human MerTK (human, UniProt Q12866 26-499); assay: SPR BIAcore T200, Ab captured, 37C
T2 construct: also called HuMER
T2 sequence: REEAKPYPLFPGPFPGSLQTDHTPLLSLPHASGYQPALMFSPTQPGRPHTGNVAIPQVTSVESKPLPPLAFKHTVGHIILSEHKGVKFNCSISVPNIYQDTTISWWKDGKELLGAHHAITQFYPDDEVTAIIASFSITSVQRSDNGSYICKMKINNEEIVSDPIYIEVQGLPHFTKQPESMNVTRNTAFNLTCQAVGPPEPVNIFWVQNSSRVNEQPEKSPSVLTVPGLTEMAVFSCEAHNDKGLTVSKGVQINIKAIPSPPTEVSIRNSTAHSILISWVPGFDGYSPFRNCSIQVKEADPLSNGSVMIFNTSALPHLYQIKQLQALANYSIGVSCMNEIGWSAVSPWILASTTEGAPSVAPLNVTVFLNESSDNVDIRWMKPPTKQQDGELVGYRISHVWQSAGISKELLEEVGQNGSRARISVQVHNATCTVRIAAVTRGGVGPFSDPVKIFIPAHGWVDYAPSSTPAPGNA
Description: (§1) All binding affinity determinations were obtained using Surface Plasmon Resonance (SPR) measurements from a BIAcore™-T200 instrument. Briefly, each rabbit or humanized antibody was captured to achieve approximately 100 RU (Response Units). Then, 3-fold serial dilutions of MerTK from various species (0.4 nM to 100 nM) diluted in HBS-EP buffer (0.01M HEPES pH 7.4, 0.15M NaCl, 3 mM EDTA and 0.05% v/v surfactant P20) was injected into the BIAcore™-T200 instrument at 25° C. or 37° C. with a flow rate of 30 μl/min. Association rates (kₒₙ) and dissociation rates (koff) were calculated using a simple one-to-one Langmuir binding model (BIAcore T200 evaluation software version 2.0). The equilibrium dissociation constant (KD) was calculated as the ratio koff/kₒₙ.

cynomolgus monkey MerTK = target: T3, cynomolgus monkey MerTK (cynomolgus monkey, UniProt A0A2K5V1H9 32-505); assay: SPR BIAcore T200, Ab captured, 37C
T3 construct: Soluble analyte in SPR; also called Cyno MerTK
T3 sequence: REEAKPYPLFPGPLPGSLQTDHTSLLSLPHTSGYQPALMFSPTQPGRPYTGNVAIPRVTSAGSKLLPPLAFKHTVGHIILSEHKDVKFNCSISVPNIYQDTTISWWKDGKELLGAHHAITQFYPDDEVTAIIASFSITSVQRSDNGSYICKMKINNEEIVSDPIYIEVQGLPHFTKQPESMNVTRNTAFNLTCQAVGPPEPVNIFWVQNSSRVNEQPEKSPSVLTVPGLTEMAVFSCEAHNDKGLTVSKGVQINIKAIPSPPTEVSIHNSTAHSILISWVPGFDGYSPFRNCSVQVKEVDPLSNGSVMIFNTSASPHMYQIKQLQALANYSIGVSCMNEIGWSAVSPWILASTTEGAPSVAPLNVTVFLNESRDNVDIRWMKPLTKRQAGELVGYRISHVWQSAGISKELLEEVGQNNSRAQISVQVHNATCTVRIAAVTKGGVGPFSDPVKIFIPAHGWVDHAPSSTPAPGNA
Description: as §1

human MerTK [5] = target: T2, human MerTK; assay: SPR BIAcore T200, Ab captured on protein A chip, 25C
Description: (§2) For binding affinity determinations of anti-MerTK antibodies of the present disclosure as a control along with commercial MerTK antibodies, Surface Plasmon Resonance (SPR) measurement with a BIAcore™-T200 instrument was used. First, two rabbit antibodies (Y323 and 10g86_D21F11) and the anti-MerTK antibody h13B4.v16 were captured by protein A sensor chip, and eight mouse antibodies (A3KCAT,2D2,7E5G1,7N-20,590H11G1E3, MAB891, MAB8911 and MAB8912-100) were captured by goat anti-mouse IgGs sensor chip respectively on each flow cell to achieve approximately 100RU. Three-fold serial dilutions of human MerTK (0.4 nM to 100 nM) were injected in HBS-EP buffer (0.01M HEPES pH 7.4, 0.15M NaCl, 3 mM EDTA and 0.05% v/v surfactant P20) at 25° C. with a flow rate of 50 μl/min to record the binding response as a function of time. The sensorgram was fitted with one-to-one Langmuir binding model to calculate association rates (kₒₙ) and dissociation rates (koff) (BIAcore T200 evaluation software version 2.0). The binding affinity (equilibrium dissociation constant (KD)) was calculated as the ratio koff/kₒₙ.

human MerTK [6] = target: T2, human MerTK; assay: SPR (BIAcore kinetic screen), h13B4.v16 captured on protein A chip, hMerTK as analyte, 25°C, 1:1 binding model [Cont.]
Description: as §2

B1: h13B4.v16 (antibody, V domains shown)
VH: EVQLVESGEGLVQPGGSLRLSCAASGFSLSSYAMGWVRQAPGKGLEYVGIINSYGNTYYANWAKGRFTISRDNSKNTVYLQMGSLRAEDMAVYYCARDPGVSSNLWGRGTLVTVSS
VL: DIQMTQSPSTLSASVGDRVTITCQASQNIYSGLAWYQQKPGKAPKLLIYGASKLASGVPSRFSGSGSGTEFTLTISSLQPDDFATYYCQATYYSSNSVAFGGGTKVEIK
notes: Humanized, human IgG1; also called 13B4 Fully Humanized; 13B4 Humanized polished mAb
[1]
  fold potency in inhibiting human macrophage phagocytosis, against h10F7.v16: 5.2 fold
[2]
  IC50 (nM), efferocytosis by human macrophages, Average (3 Donors): 0.08 nM
  IC50 (nM), efferocytosis by human macrophages, Donor A: 0.07 nM
  IC50 (nM), efferocytosis by human macrophages, Donor B: 0.08 nM
  IC50 (nM), efferocytosis by human macrophages, Donor C: 0.09 nM
  Max Inhibition (%), efferocytosis by human macrophages, Average (3 Donors): 83%
  Max Inhibition (%), efferocytosis by human macrophages, Donor A: 91%
  Max Inhibition (%), efferocytosis by human macrophages, Donor B: 82%
  Max Inhibition (%), efferocytosis by human macrophages, Donor C: 77%
[3]
  IC50 (nM), efferocytosis by human macrophages, Average (3 Donors): 0.08 nM
Human MerTK [4]
  Kd: 5.1 nM
Cynomolgus monkey MerTK
  Kd: 5.7 nM
Human MerTK [5]
  Kd: 1.6 nM
Human MerTK [6]
  Kd: 1.63 nM
  koff: 0.000151 s⁻¹
  kon: 92400 M⁻¹ s⁻¹
